Source: the supplement of paper PMC10724198
± gives the standard deviation of the averaged measurements.

tested on: Saccharomyces cerevisiae; experiment: protein stability index of tFT-peptide fusion (C-terminal peptide) (PSI (0-1 scale)); higher = more stable (slower turnover); details: genetic background: wild type; temperature: 30 C
Method: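 Multiplexed protein stability (MPS) profiling in S. cerevisiae. Random 12-aa peptides (tFT-X12 library) are fused to the C-terminus of a sfGFP-mCherry tandem fluorescent timer, after mCherry and a GGGS linker. Cells are FACS-sorted into 8 mCherry/sfGFP bins and deep-sequenced. The protein stability index (PSI) is the read-weighted bin average, scaled from 0 (unstable) to 1 (stable). Only peptides with >10 reads are reported; cells were grown at 30 °C in SC-His with glucose.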
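Also: PSI is a weighted mean of sequencing reads over stability bins, variants kept only with over 10 reads, mCherry proximal and sfGFP distal, peptide attached via GGGS linker.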

In order of rising protein stability index:
1. DKVLQSLALKCK  0.508 ± 0.0074
2. ECYKKFVCSCCT  0.515 ± 0.0086
3. DGSMRKWGQGVG  0.575 ± 0.067
4. DSLTKYSAKEYR  0.5777 ± 0.0052
5. EEGGVWIRVEAG  0.588 ± 0.019
6. DYLDYPSYNDLT  0.599 ± 0.038
7. DRCSRFRCFFVG  0.6 ± 0.031
8. ELTLTVFQVGEE  0.602 ± 0.025
9. EAVCHQFVELIG  0.605 ± 0.02
10. DKVKILVGVAGW  0.607 ± 0.036
11. EGCYGVRGNTLH  0.612 ± 0.017
12. DFKHKYREKKKF  0.615 ± 0.062
13. DFILVRGWADLR  0.616 ± 0.059
14. EIYARVQERLKI  0.617 ± 0.016
15. EKRAKKKVKIII  0.62 ± 0.035
16. DRPWAGGGLGVC  0.621 ± 0.081
17. EGKWCGVKRGVY  0.627 ± 0.033
18. DGGSGQGMLGGS  0.628 ± 0.043
19. DVRSGRAVVGGW  0.63 ± 0.051
20. EKRDEGAGKGEQ  0.63 ± 0.014
21. EKDRAVGAAKAA  0.631 ± 0.12
22. DGRMGAGVAGTG  0.636 ± 0.069
23. EIGGYHLGWAKC  0.636 ± 0.022
24. ELFGGQRLARNY  0.637 ± 0.057
25. DIVVGANISSIN  0.641 ± 0.02
26. DKKATTSIGIKK  0.642 ± 0.07
27. DIVSGGLCVEVL  0.643 ± 0.033
28. DQATEPTPKPPD  0.643 ± 0.0079
29. DGGHSFLSVARG  0.644 ± 0.04
30. ENIENGRPKTEP  0.644 ± 0.012
31. DHGRLFSNILIS  0.645 ± 0.028
32. DSNTAGLTRDIA  0.645 ± 0.015
33. DRRQLSVVARRT  0.648 ± 0.027
34. DRSRWMVVRGGG  0.648 ± 0.13
35. DKATGARGKPPR  0.649 ± 0.13
36. EGSGEGEEAGGV  0.6497 ± 0.0047
37. EGVAGEWRGMEM  0.65 ± 0.014
38. DFSLRCIAIPRV  0.651 ± 0.046
39. EALTTAATRYGP  0.651 ± 0.0068
40. DGKTKKKTRSLR  0.652 ± 0.034
41. EKERRATCPGRK  0.652 ± 0.051
42. DFLCHFCVIDEC  0.653 ± 0.066
43. EASGPGPGAKAT  0.6526 ± 0.0026
44. EENGAGVSVGKL  0.653 ± 0.0085
45. ECTTTWLVPQHL  0.655 ± 0.015
46. DGCLMEHSMQVG  0.656 ± 0.035
47. EGGLKIRRSRDE  0.657 ± 0.024
48. DRRRGMVRKTHV  0.659 ± 0.019
49. DSDSVMPFERLM  0.659 ± 0.0095
50. DSFDLPCLFKVP  0.659 ± 0.078
51. EINEKPGINKKI  0.6587 ± 0.0028
52. DGCRLGDFLNRV  0.66 ± 0.042
53. DGRRRHCYTITA  0.661 ± 0.031
54. EAIGGVPASSRP  0.661 ± 0.0091
55. EARMGVGRCGTG  0.661 ± 0.022
56. EDSGRPGRPSTH  0.662 ± 0.048
57. EEVKRKSGGKSK  0.662 ± 0.027
58. DLIRIRHACGFL  0.663 ± 0.048
59. DVLSPRPSPLPS  0.665 ± 0.0093
60. EATGSLISFCGW  0.665 ± 0.068
61. EGIVRYRKRGSR  0.665 ± 0.015
62. EGSGLVVANAYP  0.667 ± 0.022
63. EKLRGRKKGELQ  0.668 ± 0.036
64. EGGRGGGRGVVG  0.67 ± 0.027
65. DSQSRRFDRSRN  0.671 ± 0.076
66. EKKKKKTAKQLK  0.671 ± 0.085
67. DQSSTIYKIIKE  0.672 ± 0.045
68. DRRVSYKKKKRK  0.672 ± 0.14
69. DKSEINKPTKGK  0.675 ± 0.021
70. EKIKKTEKNKNK  0.6755 ± 0.0042
71. DPGTNGGCAPPV  0.676 ± 0.0014
72. EGKKKKKGNRPK  0.676 ± 0.081
73. DYRKGDVETPFV  0.677 ± 0.032
74. EKKKKTKKEKKK  0.677 ± 0.0082
75. DLSDGHFSTASP  0.678 ± 0.0069
76. EDRSITYNALIL  0.678 ± 0.013
77. DPWGGTGKGHWG  0.679 ± 0.0056
78. ECESGKFSLGGT  0.68 ± 0.02
79. DPQRQDVFRVSE  0.6823 ± 0.0021
80. DIRGGDMGEWRE  0.683 ± 0.023
81. EIIEINNVKRIK  0.6835 ± 0.0049
82. EEGKSTREKEGG  0.685 ± 0.036
83. EGPTRIKRGRSG  0.685 ± 0.031
84. DKVIIRKLRTSK  0.6863 ± 0.0051
85. EDRTQEIQNIHD  0.686 ± 0.012
86. EEGGQGITIEES  0.686 ± 0.12
87. EPGGSKRSGGRL  0.686 ± 0.03
88. DLASPIFSRFSS  0.687 ± 0.036
89. DYVVHSGTYGPK  0.687 ± 0.021
90. EKKKKKPKKKRK  0.687 ± 0.026
91. DRLGGDWMERGG  0.688 ± 0.032
92. DPKNEINAKENI  0.689 ± 0.069
93. DTHESELNQLNG  0.6902 ± 0.0032
94. EEMEKRNREKEL  0.691 ± 0.094
95. EGDGLVWGGQGG  0.691 ± 0.0078
96. ENKTNKEKQQKQ  0.691 ± 0.012
97. DKDWDHGSLCIP  0.692 ± 0.074
98. ELVGRRAFRASR  0.693 ± 0.12
99. EKVASLVTIFDM  0.695 ± 0.024
100. DIERRMEVINNG  0.696 ± 0.032
101. EGEVGGVVLPRI  0.696 ± 0.04
102. EHKVQTTTNQKE  0.697 ± 0.011
103. EHQNHNTARKRH  0.69835 ± 0.00027
104. DPRPHPPFARSP  0.699 ± 0.026
105. EGEGQGWGGQGG  0.6994 ± 0.0021
106. ENEKKKKNKNKN  0.7 ± 0.049
107. EDFCMVEQPGVE  0.7012 ± 0.0054
108. DEWAGKYLKTIA  0.702 ± 0.013
109. DHRGSIWWAGSG  0.702 ± 0.0034
110. DLCITNTMLFYL  0.7025 ± 0.006
111. DKACVHPRTVTG  0.703 ± 0.07
112. EKSQMPPAPAPK  0.703 ± 0.04
113. DVGWRVFVFGGL  0.704 ± 0.038
114. ECGLGGCGGLGV  0.705 ± 0.03
115. DPRSPLSHSFLR  0.706 ± 0.044
116. DSDGILTEPTSW  0.707 ± 0.0094
117. EETRRKKRTGKK  0.707 ± 0.0099
118. DTPERKGNLEEH  0.709 ± 0.053
119. DVGWRATGVLGG  0.7106 ± 0.0052
120. DIGSSGRVGGLG  0.712 ± 0.031
121. DGASAARQGGAR  0.7171 ± 0.00082
122. EDYERETRKICK  0.717 ± 0.038
123. EIVKAHKVKKRK  0.7166 ± 0.0045
124. EKKLKNEEKKEI  0.717 ± 0.04
125. EGGERERGNRER  0.7176 ± 0.0069
126. DFVGCSGRGSFV  0.72 ± 0.023
127. DWYLVGGRVFWV  0.721 ± 0.015
128. ENANWHSKNMSK  0.723 ± 0.071
129. DSVRGNDSGSGL  0.7245 ± 0.0064
130. DLPYLYPRCLIS  0.72683 ± 0.00028
131. DSCGVFLGDFFQ  0.727 ± 0.026
132. EKKKKKKEEREK  0.728 ± 0.16
133. DKLDKKTLYLRK  0.729 ± 0.061
134. DKSIGIYIVRSH  0.731 ± 0.012
135. DLTQHRQHKPQK  0.735 ± 0.043
136. EGQARRAGRQGR  0.7349 ± 0.0053
137. EGWVVYFEEDLE  0.735 ± 0.017
138. DRRLGKHEYQPY  0.737 ± 0.022
139. DPFYRNFARREA  0.738 ± 0.026
140. DGGVGGRAPRVR  0.744 ± 0.097
141. EKESERGREKDS  0.747 ± 0.12
142. EIKGKLQEGRMD  0.75 ± 0.021
143. EKKEGEREKQED  0.751 ± 0.15
144. EARRHTKHPGKI  0.753 ± 0.066
145. EDILWADVPYSK  0.759 ± 0.039
146. ELASLSPCCMGM  0.762 ± 0.15
147. DSHDMSQDLFVN  0.767 ± 0.039
148. DPPLPAHPDVPP  0.771 ± 0.086
149. DSIALNKDVFWW  0.773 ± 0.02
150. EPCIVCPMSRQG  0.773 ± 0.11
151. DRRLPVSPPTIV  0.774 ± 0.12
152. EKQICKVVKIKE  0.777 ± 0.048
153. DLGPLFVSWSTW  0.778 ± 0.021
154. DPFFPPYTPSPS  0.782 ± 0.049
155. ELDFVVNKIQDW  0.828 ± 0.096
